In paper PMC6925320 one finds Kd and stoichiometry N data, which are given here for 6 substances.

Some results are limits rather than exact numbers.

What is called Kd is the equilibrium constant for the complex coming apart. Low values mean a tighter complex, high ones a looser complex. The stoichiometry N is the number of molecules, sites or subunits per partner or assembly.

In assay [1] the target is lipolysis-stimulated lipoprotein receptor (LSR) on Caco-2 cells (human (endogenous in Caco-2)) (UniProt Q86X29). Briefly: flow cytometry on cells. For orientation: In flow cytometry, cells or beads pass a laser one at a time.
In assay [2] the target is trypsin-activated CDTb (cell-binding component of the C. difficile transferase toxin), oligomer (Clostridioides difficile strain R20291) (UniProt Q9KH41). Briefly: cryo-EM structure.

Chain of UniProt Q86X29 (Q86X29 whole entry): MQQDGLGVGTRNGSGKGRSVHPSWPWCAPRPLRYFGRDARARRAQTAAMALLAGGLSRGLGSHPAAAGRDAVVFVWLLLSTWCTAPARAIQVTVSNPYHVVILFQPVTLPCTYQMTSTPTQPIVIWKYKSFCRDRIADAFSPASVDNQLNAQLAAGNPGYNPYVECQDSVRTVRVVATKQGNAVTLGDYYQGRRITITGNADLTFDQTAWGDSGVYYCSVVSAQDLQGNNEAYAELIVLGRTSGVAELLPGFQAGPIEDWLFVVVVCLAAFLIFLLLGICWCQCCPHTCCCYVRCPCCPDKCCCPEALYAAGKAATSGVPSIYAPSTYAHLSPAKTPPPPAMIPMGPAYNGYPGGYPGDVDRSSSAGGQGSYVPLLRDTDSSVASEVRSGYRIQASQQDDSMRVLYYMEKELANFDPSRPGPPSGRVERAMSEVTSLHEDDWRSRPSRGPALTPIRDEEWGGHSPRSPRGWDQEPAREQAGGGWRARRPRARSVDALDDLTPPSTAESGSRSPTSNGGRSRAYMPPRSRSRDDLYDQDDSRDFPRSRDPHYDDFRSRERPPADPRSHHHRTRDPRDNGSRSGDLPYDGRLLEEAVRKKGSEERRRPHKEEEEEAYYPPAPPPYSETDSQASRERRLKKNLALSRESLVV

Turning to “Alexa-647-labeled CDTb F774D (from UniProt Q9KH41 43-876) (natural protein)”, in assay [1], the Kd was above 0.05 µM. With “Alexa-647-labeled CDTb Y812D (from UniProt Q9KH41 43-876) (natural protein)”, the Kd in assay [1] was found to be 0.0039 µM. The same measure, in the same setting: the value for “Alexa-647-labeled CDTb, wild type (from UniProt Q9KH41 43-876) (natural protein)” was 0.0045 µM. Consider “trypsin-activated CDTb (cell-binding component of the C. difficile transferase toxin), oligomer (from UniProt Q9KH41 43-876) (natural protein)”, for which the stoichiometry N in assay [2] came to 7. In assay [1], “Alexa-647-labeled CDTb T854E (from UniProt Q9KH41 43-876) (natural protein)” registered a Kd of 0.038 µM. This lies in the double-digit nanomolar range. Regarding “Alexa-647-labeled CDTb I852E (from UniProt Q9KH41 43-876) (natural protein)”, the Kd in assay [1] came out at 0.075 µM.
